Results reported in patent publication US20050112168A1 (UNIVERSITY OF ROCHESTER, published 2005).
Ends that are not written are not given here.

Key:
[1] = target: T1, purified type V tartrate resistant acid phosphatase (TRAP), also known as uteroferrin (UniProt P09889 22-340, limits assumed); experiment: M13 random 12-mer phage display, three rounds of bio-panning on immobilised TRAP
T1 construct: Purified protein used as immobilised bait, in ELISA, Scatchard, Far-Western and GST pull-down; also called type V TRAP; purified TRAP
T1 sequence (looked up): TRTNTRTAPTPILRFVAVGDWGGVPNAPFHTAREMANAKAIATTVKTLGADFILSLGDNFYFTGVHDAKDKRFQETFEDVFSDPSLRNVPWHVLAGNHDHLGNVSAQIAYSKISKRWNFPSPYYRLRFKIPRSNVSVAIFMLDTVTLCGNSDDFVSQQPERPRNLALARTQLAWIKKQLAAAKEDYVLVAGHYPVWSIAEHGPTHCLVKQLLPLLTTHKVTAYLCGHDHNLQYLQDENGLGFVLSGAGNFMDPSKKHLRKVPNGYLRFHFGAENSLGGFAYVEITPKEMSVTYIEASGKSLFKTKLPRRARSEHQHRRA

[2] = target: T1, purified type V tartrate resistant acid …; experiment: Scatchard-type analysis, immobilised TRAP and increasing phage titer, bound phage counted by plaque assay
[3] = target: T2, RNase A (UniProt P61823 27-150); experiment: Far-Western, proteins on membrane probed with Clone 5 phage
T2 construct: Control
T2 sequence (looked up): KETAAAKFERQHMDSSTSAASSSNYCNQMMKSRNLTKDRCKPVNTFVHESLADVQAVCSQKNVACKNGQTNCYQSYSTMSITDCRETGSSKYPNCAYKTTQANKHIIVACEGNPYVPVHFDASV

[4] = target: T3, bovine serum albumin (bovine, UniProt P02769 25-607); experiment: as above
T3 construct: Control; also called BSA
T3 sequence (P02769 25-607 limits assumed): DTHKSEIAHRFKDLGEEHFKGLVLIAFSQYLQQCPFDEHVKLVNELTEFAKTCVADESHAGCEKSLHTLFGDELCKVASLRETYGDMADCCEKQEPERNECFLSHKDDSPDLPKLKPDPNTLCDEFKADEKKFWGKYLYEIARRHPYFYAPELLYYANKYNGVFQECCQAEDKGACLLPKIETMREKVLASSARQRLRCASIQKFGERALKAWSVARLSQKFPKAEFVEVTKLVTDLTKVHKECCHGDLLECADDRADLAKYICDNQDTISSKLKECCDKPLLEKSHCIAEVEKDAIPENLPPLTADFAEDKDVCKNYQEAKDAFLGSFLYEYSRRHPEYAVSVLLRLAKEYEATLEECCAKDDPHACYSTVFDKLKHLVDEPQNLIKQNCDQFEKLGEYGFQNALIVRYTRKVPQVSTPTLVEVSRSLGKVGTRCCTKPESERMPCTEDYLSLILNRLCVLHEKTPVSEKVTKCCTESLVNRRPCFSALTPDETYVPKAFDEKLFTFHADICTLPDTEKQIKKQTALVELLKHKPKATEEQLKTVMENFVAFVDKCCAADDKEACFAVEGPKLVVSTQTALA

[5] = target: T4, VP-16-AD-GPC412 (VP-16-AD fused to GPC4 deficient in the 12 amino acids of Clone 5) (human, UniProt O75487 19-556); experiment: mammalian two-hybrid luciferase assay
T4 construct: also called 12 amino acid deficient version of GPC4
T4 sequence: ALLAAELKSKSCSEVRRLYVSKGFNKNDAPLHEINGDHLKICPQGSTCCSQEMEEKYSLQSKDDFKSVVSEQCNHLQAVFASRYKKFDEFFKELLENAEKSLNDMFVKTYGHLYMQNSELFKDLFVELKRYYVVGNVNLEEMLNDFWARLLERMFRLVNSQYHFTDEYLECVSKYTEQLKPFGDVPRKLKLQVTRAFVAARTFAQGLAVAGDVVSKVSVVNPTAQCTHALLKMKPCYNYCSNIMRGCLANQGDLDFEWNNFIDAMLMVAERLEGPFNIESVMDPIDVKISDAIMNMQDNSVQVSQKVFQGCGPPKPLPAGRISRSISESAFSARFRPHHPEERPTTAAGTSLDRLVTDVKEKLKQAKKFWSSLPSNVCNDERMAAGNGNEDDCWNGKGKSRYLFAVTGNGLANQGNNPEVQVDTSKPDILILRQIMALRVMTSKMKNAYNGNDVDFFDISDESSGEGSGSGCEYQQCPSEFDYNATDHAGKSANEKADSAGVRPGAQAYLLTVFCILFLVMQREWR

[6] = target: T5, Smad 2 (UniProt Q15796 2-467, limits assumed); experiment: GST-TRAP pull-down from lysate of cells without HIS-TRIP, Western
T5 construct: Detected by a bought antibody in the pull-down
T5 sequence (Q15796 2-467 limits assumed): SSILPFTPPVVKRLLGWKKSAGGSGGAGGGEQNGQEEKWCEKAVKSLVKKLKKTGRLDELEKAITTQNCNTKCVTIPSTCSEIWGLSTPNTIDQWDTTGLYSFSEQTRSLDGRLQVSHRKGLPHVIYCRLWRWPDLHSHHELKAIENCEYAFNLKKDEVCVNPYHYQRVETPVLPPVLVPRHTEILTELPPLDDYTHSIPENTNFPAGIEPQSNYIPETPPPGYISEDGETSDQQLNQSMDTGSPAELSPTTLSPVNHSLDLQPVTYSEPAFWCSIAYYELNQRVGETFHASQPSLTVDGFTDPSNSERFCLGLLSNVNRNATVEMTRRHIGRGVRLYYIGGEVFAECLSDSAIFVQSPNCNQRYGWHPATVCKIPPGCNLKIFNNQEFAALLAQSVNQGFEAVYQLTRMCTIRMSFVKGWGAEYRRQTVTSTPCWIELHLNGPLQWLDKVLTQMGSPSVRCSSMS

[7] = target: T6, type II TGFβ receptor (UniProt P37173 23-567, limits assumed); experiment: as above
T6 construct: From lysate of transfected cells; also called TGFβRII; TGFβ type II receptor
T6 sequence (P37173 23-567 limits assumed): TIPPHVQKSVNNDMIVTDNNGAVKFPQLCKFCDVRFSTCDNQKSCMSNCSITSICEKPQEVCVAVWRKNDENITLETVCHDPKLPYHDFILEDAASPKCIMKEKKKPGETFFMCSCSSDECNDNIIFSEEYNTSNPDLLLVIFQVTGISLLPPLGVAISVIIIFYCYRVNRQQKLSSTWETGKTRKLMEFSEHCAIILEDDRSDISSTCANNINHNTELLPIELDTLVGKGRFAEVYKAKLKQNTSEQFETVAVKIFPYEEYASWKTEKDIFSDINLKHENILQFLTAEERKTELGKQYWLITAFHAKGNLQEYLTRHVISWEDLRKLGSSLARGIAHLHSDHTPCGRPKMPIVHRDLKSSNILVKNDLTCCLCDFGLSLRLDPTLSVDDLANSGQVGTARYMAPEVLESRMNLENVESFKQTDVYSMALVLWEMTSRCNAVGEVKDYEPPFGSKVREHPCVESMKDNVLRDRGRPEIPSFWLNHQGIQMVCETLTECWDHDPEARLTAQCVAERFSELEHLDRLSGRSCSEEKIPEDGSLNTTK

[8] = target: T1, purified type V tartrate resistant acid …; experiment: modified phage ELISA on immobilised TRAP, antibody to the phage coat

B1: Clone 5 phage (M13 phage displaying the 12-mer TPLSYLKGLVTV) (peptide)
peptide: TPLSYLKGLVTV
modifications: also: displayed on M13 phage coat protein (protein and linker not given here)
notes: also called GPC4 phage (Clone 5); ID No. 23; not shown: M13 phage coat protein carrying the random 12-mer
In the case of B1, the “Fre (frequency among 44 sequenced clones after bio-panning with TRAP)” value (“Fre” below) [1] is reported as 15 of 44 clones, the Kd [2] is reported as 0.11 nM and the binding result [3] is reported as “no binding (tested: 5 ug loaded)”. B1: no binding (tested: 5 ug loaded) [4].

B2: GAL-4-BD-TRAP fusion protein (other)
chain: MKLLSSIEQACDICRLKKLKCSKEKPKCAKCLKNNWECRYSPKTKRSPLTRAHLTEVESRLERLEQLFLLIFPREDLDMILKMDSLQDIKALLTGLFVQDNVNKDAVTDRLASVETDMPLTLRQHRISATSSSEESSNKGQRQLTVSATPALRFVAVGDWGGVPNAPFHTAREMANAKEIARTVQILGADFILSLGDNFYFTGVQDINDKRFQETFEDVFSDRSLRKVPWYVLAGNHDHLGNVSAQIAYSKISKRWNFPSPFYRLHFKIPQTNVSVAIFMLDTVTLCGNSDDFLSQQPERPRDVKLARTQLSWLKKQLAAAREDYVLVAGHYPVWSIAEHGPTHCLVKQLRPLLATYGVTAYLCGHDHNLQYLQDENGVGYVLSGAGNFMDPSKRHQRKVPNGYLRFHYGTEDSLGGFAYVEISSKEMTVTYIEASGKSLFKTRLPRRARP
notes: Expressed inside transfected cells
B2: no binding [5].

B3: GST-TRAP fusion protein (other)
chain: ATPALRFVAVGDWGGVPNAPFHTAREMANAKEIARTVQILGADFILSLGDNFYFTGVQDINDKRFQETFEDVFSDRSLRKVPWYVLAGNHDHLGNVSAQIAYSKISKRWNFPSPFYRLHFKIPQTNVSVAIFMLDTVTLCGNSDDFLSQQPERPRDVKLARTQLSWLKKQLAAAREDYVLVAGHYPVWSIAEHGPTHCLVKQLRPLLATYGVTAYLCGHDHNLQYLQDENGVGYVLSGAGNFMDPSKRHQRKVPNGYLRFHYGTEDSLGGFAYVEISSKEMTVTYIEASGKSLFKTRLPRRARP
notes: also called 'GST' tagged TRAP; recombinant GST-TRAP; not shown: glutathione S-transferase tag (Amersham Pharmacia GST system)
B3: no binding [6]; no binding [7].

B4: M13 phage clone displaying SEQ ID NO:21 (peptide)
peptide: SQWHPRSASYPM
notes: also called ID No. 21; not shown: M13 phage coat protein carrying the random 12-mer; not specified
B4 was tested, and the “Fre” value [1] was 4 of 44 clones and the “fold increase in affinity for TRAP over wild type phage” value [8] was 40 fold.

B5: M13 phage clone displaying SEQ ID NO:22 (peptide)
peptide: TPSLPPTMFRLT
notes: also called ID No. 22; not shown: M13 phage coat protein carrying the random 12-mer; not specified
For B5, the “Fre” value [1] was 4 of 44 clones and the “fold increase in affinity for TRAP over wild type phage” value [8] was 40 fold.
